In patent US20040047860A1 (published 2004):

Key:
Rec pig MCP-1 = Rec pig MCP-1 (pig, UniProt P42831 24-99); assay: BIAcore, 5 nM chemokine over ABN912, bound amount after 8 min, n = 3
Rec rabbit MCP-1 = Rec rabbit MCP-1 (rabbit, UniProt P28292 24-125, limits assumed); assay: as above
Rec guinea pig MCP-1 = Rec guinea pig MCP-1 (guinea pig, UniProt Q08782 24-120, limits assumed); assay: as above
Rec rat MCP-1 = Rec rat MCP-1 (rat, UniProt P14844 24-148, limits assumed); assay: as above
Rec mouse JE/MCP-1 = target: T1, Rec mouse JE/MCP-1 (mouse, UniProt P10148 24-96, limits assumed); assay: as above
T1 construct: also called mouse MCP-1
T1 sequence (P10148 24-96 limits assumed): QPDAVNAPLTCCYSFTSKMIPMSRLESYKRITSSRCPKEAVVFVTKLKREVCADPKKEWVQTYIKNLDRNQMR

Rec dog MCP-1 = Rec dog MCP-1 (dog, UniProt P52203 24-101); assay: as above
Chain of Rec dog MCP-1 (P52203 24-101 limits assumed): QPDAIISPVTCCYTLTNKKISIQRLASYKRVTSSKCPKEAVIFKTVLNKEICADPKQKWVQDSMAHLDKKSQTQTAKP

[1] = target: recombinant human MCP-1 (human) (UniProt P13500); assay: BIAcore, 5 nM chemokine over ABN912, bound amount after 8 min
Chain of recombinant human MCP-1 (human) (P13500 24-99 limits assumed): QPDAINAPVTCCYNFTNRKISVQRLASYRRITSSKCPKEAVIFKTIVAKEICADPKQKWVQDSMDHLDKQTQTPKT

MCP-1 mutant K49A = target: T2, MCP-1 mutant K49A (human, UniProt P13500 24-99); assay: BIAcore, mutant MCP-1 (0.75 to 4 nM) over ABN912 captured on anti-Fcγ
T2 construct: also called K49 to alanine
T2 sequence (P13500 24-99 K72A limits assumed): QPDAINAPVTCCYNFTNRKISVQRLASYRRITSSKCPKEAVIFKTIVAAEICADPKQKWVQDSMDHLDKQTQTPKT

rh MCP-3 = rh MCP-3 (human, UniProt P80098 24-99); assay: BIAcore, 5 nM chemokine over ABN912, bound amount after 8 min, n = 3
Chain of rh MCP-3 (P80098 24-99 limits assumed): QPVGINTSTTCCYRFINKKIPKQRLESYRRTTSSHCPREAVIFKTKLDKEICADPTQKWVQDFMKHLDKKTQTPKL

rh MIP-1α = target: T3, rh MIP-1α (human, UniProt P10147 27-92, limits assumed); assay: as above
T3 sequence (looked up): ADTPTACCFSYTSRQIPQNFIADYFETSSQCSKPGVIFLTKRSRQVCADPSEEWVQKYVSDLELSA

rh MCP-4 = rh MCP-4 (human, UniProt Q99616 24-98); assay: as above
Chain of rh MCP-4 (Q99616 24-98 limits assumed): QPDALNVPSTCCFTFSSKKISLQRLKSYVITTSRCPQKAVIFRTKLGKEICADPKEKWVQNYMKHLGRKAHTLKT

[2] = target: T4, recombinant human eotaxin-1 (human, UniProt P51671 24-97); assay: as above
T4 construct: also called rh eotaxin
T4 sequence (P51671 24-97 limits assumed): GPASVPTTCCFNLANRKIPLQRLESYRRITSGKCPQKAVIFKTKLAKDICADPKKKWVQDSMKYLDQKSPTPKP

rh MCP-2 = target: T5, rh MCP-2 (human, UniProt P80075 24-99); assay: as above
T5 sequence (looked up): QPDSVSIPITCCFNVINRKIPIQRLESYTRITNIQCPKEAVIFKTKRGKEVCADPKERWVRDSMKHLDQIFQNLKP

rh MIP-1β = target: T6, rh MIP-1β (human, UniProt P13236 24-92); assay: as above
T6 sequence (looked up): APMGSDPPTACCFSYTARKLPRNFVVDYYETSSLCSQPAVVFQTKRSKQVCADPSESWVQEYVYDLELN

rh LEC = target: T7, rh LEC (human, UniProt O15467 24-120); assay: as above
T7 sequence (looked up): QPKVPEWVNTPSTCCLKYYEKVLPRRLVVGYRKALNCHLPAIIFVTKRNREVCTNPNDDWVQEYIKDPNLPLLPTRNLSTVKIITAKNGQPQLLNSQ

rh RANTES = target: T8, rh RANTES (human, UniProt P13501 24-91); assay: as above
T8 sequence (looked up): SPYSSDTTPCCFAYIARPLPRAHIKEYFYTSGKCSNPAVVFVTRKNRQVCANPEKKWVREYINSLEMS

[3] = target: recombinant human MCP-1 (human) (UniProt P13500); assay: BIAcore, ABN912 immobilised, recombinant human MCP-1 in solution, n = 30
[4] = target: recombinant human MCP-1 (human) (UniProt P13500); assay: SPA, inhibition of (125-I)-MCP-1 binding to membranes of CCR2B expressing CHO cells (CHO#84), three independent experiments

Chain of Rec pig MCP-1 (P42831 24-99 limits assumed): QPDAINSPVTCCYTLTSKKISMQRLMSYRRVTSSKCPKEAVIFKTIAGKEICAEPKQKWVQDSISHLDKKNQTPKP
Chain of Rec rabbit MCP-1 (P28292 24-125 limits assumed): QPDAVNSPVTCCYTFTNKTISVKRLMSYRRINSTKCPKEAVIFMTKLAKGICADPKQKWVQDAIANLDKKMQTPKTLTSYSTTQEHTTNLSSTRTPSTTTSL
Chain of Rec guinea pig MCP-1 (Q08782 24-120 limits assumed): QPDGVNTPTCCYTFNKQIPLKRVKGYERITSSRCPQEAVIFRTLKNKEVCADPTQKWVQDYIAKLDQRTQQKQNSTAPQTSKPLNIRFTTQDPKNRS
Chain of Rec rat MCP-1 (P14844 24-148 limits assumed): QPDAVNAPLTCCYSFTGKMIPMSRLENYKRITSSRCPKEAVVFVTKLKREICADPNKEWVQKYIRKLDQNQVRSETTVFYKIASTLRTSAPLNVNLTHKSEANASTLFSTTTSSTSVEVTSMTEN

B1: ABN912 antibody (human IgG4/κ anti-human MCP-1 antibody) (antibody, V domains shown)
VH: EVQLVQSGGGLVQPGGSLRLSCAASGFTFSHYWMSWVRQAPGKGLEWLANIEQDGSEKYYVDSVKGRFTISRDNAKNSLYLQMNSLRAEDTAVYFCARDLEGLHGDGYFDLWGRGTLVTVSS
VL: AIQLTQSPSSLSASVGDRVILTCRASQGVSSALAWYQQKPGKAPKLLIYDASSLESGVPSRFSGSGSGPDFTLTISSLQPEDFATYFCQQFNSYPLTFGGGTKVEIK
Rec pig MCP-1
  Percent binding of ABN912 (compared to recombinant human MCP-1): 0.5%
Rec rabbit MCP-1
  Percent binding of ABN912 (compared to recombinant human MCP-1): 0.9%
Rec guinea pig MCP-1
  Percent binding of ABN912 (compared to recombinant human MCP-1): 2.3%
Rec rat MCP-1
  Percent binding of ABN912 (compared to recombinant human MCP-1): -0.2%
Rec mouse JE/MCP-1
  Percent binding of ABN912 (compared to recombinant human MCP-1): -0.4%
Rec dog MCP-1
  Percent binding of ABN912 (compared to recombinant human MCP-1): 1.3%
[1]
  Binding to ABN912 (percent compared to recombinant human MCP-1): 100%
  Percent binding of ABN912 (compared to recombinant human MCP-1): 100%
MCP-1 mutant K49A
  fold decrease of affinity (against MCP-1): 133 fold
Rh MCP-3
  Binding to ABN912 (percent compared to recombinant human MCP-1): 4.3%
Rh MIP-1α
  Binding to ABN912 (percent compared to recombinant human MCP-1): -2.8%
Rh MCP-4
  Binding to ABN912 (percent compared to recombinant human MCP-1): -2.4%
[2]
  Binding to ABN912 (percent compared to recombinant human MCP-1): 52.6%
Rh MCP-2
  Binding to ABN912 (percent compared to recombinant human MCP-1): 6.2%
Rh MIP-1β
  Binding to ABN912 (percent compared to recombinant human MCP-1): -2.9%
Rh LEC
  Binding to ABN912 (percent compared to recombinant human MCP-1): -2.8%
Rh RANTES
  Binding to ABN912 (percent compared to recombinant human MCP-1): -2.7%
[3]
  Kd: 0.043 nM
  koff: 0.0005 s⁻¹
  kon: 1.3e+07 M⁻¹ s⁻¹
[4]
  IC50: 0.461 nM
